Laboratory results as given in patent US20190002549A1 (I MAB BIOPHARMA, published 2019).
Substitutions are numbered along the chain they refer to.

B1: 23F4 chimera (antibody, V domains shown)
VH: QVQLQQSGPELVKPGTSMKISCKTSDYTLTSHYLHWVKQRPGQGLEWIGWIFPGDDKTKYNEKFKGKATLTSDKTSNTAYMQLSSLTSEESAVYFCARGTKYLNWNFDVWGTGTTVTVSS
VL: DIVLTQPQKFLSTSVGDRVSVTCKANQNVGTTLAWYQQKPGQSPKALIYSASYRYSGVPDRFTGSGSGTDFTLTISNVQSEDLAEYFCHQYTTYPLTFGGGTKLEIK
notes: Human constant regions (captured by anti-human Fc IgG); also called Hu23F4-chimera
B2: Hu50C5-6 (antibody, V domains shown)
VH: EVQLVQSGAEVKKPGSSVKVSCKASGYIFSPYSIHWVRQAPGQGLEWMGYINPSTGYIEYNQHFKDRVTITADKSTSTAYMELRSLRSEDTAVYYCARGGDYEGYFDYWGQGTTVTVSS
VL: DIQMTQSPSSLSASVGDRVTITCRLNENIYSFLAWYQQKPGKAPKLLIYNAETLAEGVPSRFSGSGSGTDFTLTISSLQPEDFATYYCQQHYGTPYTFGGGTKVEIK
notes: Humanized; also called 35230Hu50C5-6
B3: Hu50C5-11 (antibody, V domains shown)
VH: B2 VH with M48I
VL: B2 VL
notes: Humanized; also called 35230Hu50C5-11
B4: Hu50C5-19 (antibody, V domains shown)
VH: B2 VH with M48I, V68T, I70L
VL: B2 VL with I48V, G57D, D70Q
notes: Humanized; also called 35230Hu50C5-19
B5: Hu50C5-23 (antibody, V domains shown)
VH: B2 VH with S30T, M48I, V68T, I70L
VL: B2 VL with I48V, G57D
notes: Humanized; also called 35230Hu50C5-23
B6: Hu50C5-8 (antibody, V domains shown)
VH: B2 VH
VL: B2 VL with I48V, G57D
notes: Humanized; also called 35230Hu50C5-8
B7: Hu50C5-18 (antibody, V domains shown)
VH: B2 VH with M48I, V68T, I70L
VL: B2 VL with I48V, G57D
notes: Humanized
B8: Hu50C5-17 (antibody, V domains shown)
VH: B2 VH with M48I, V68T, I70L
VL: B2 VL with I48V
notes: Humanized; also called 35230Hu50C5-17
B9: Hu50C5-21 (antibody, V domains shown)
VH: B2 VH with S30T, M48I, V68T, I70L
VL: B2 VL
notes: Humanized; also called 35230Hu50C5-21
B10: 50C5 chimera (antibody, V domains shown)
VH: QVQLQQSAAELVRPGASVKMSCKASGYIFTPYSIHWIKQRPGQGLEWIGYINPSTGYIEYNQHFKDRTTLTADKSSSTAYMQLRSLTSEDSAVYYCARGGDYEGYFDYWGQGTTLTVSS
VL: DIQMTQSPDSLSASVGETVTITCRLNENIYSFLAWYQQRQGKSPQLLVYNAETLAEDVPSRFSGSGSGTQFSLKISSLQTDDFGTYYCQQHYGTPYTFGGGTNLEIE
notes: Human constant regions (captured by anti-human Fc IgG); also called 35230Hu50C5-chimera; Hu50C5-chimera
B11: Hu23F4-29 (antibody, V domains shown)
VH: EVQLVQSGAEVKKPGASVKVSCKASGYTFTSHYLHWVRQAPGQGLEWMGWIFPGDDKTKYNEKFKGRVTLTSDTSISTAYMELSRLRSDDTAVYYCARGTKYLNWNFDVWGQGTTVTVSS
VL: DIQLTQSPSFLSASVGDRVTITCKANQNVGTTLAWYQQKPGKAPKALIYSASYRYSGVPSRFSGSGSGTEFTLTISSLQPEDFATYYCHQYTTYPLTFGGGTKVEIK
notes: Humanized
B12: Hu23F4-20 (antibody, V domains shown)
VH: B11 VH with L70M, S72R
VL: B11 VL with A46L
notes: Humanized
B13: Hu23F4-27 (antibody, V domains shown)
VH: B11 VH with L70M
VL: B11 VL with A43S, S60D, E70D, Y87F
notes: Humanized
B14: Hu23F4-5 (antibody, V domains shown)
VH: B11 VH with S17T, V20I, A24V, R38Q, Q43K, L70I, I76T, S77D, R85S, D89E
VL: B11 VL with A46L
notes: Humanized
B15: Hu23F4-23 (antibody, V domains shown)
VH: B11 VH with L70M, S72R
VL: B11 VL with A43S, S60D, E70D, Y87F
notes: Humanized
B16: Hu23F4-25 (antibody, V domains shown)
VH: B11 VH with L70M
VL: B11 VL
notes: Humanized
B17: Hu23F4-36 (antibody, V domains shown)
VH: B11 VH with G26D, F29L, M48I, V68A
VL: B11 VL with A46L
notes: Humanized
B18: Hu23F4-13 (antibody, V domains shown)
VH: EVQLVQSGAEVKKPGATVKISCKVSGYTFTSHYLHWVQQAPGKGLEWIGWIFPGDDKTKYNEKFKGRATLTSDTSTDTAYMELSSLRSEDTAVYYCARGTKYLNWNFDVWGQGTTVTVSS
VL: B11 VL with A46L
notes: Humanized
B19: Hu23F4-6 (antibody, V domains shown)
VH: B18 VH with I48M, A68V, L70I
VL: B11 VL
notes: Humanized

Each binder was assayed against T1, recombinant human GM-CSF protein (human, UniProt P04141 18-144) (assay: SPR Biacore T200, antibody captured by anti-human Fc, GM-CSF as analyte, 25 C, 1:1 model).
T1 construct: Bought recombinant protein (Genscript); also called biotinylated human GM-CSF protein
Procedure: The binding kinetics of humanized antibodies were measured by Biacore as previously described. […] The binding kinetics assay of antibody to antigen was performed using Biacore T200 system through a human antibody capture approach. The anti-human Fc IgG were immobilized on CMS sensor chip according to the manufacturer's instruction. The test antibody was injected and captured by the immobilized anti-human Fc IgG. And then serial concentrations of the antigen were individually injected, and the binding profile was recorded for each concentration of antigen analyte, respectively.
The assay system was regenerated by injection of 10 mM Glycine-HCL pH 1.5 for 30 seconds. The running buffer was HBS-EP+ (10 mM HEPES, pH 7.4, 150 mM NaCl, 3 mM EDTA and 0.05% P20). The assay temperature was 25° C., and the association and dissociation time were 180 and 600 seconds, respectively.

T1 sequence (P04141 18-144 limits assumed): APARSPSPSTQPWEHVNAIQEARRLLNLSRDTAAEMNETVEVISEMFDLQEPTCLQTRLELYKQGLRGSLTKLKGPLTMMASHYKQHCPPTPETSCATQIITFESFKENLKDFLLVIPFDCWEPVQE

| Kd [nM] | koff [s⁻¹] | kon [M⁻¹ s⁻¹] | Binder |
| --- | --- | --- | --- |
| 0.0315 | 3.87e-05 | 1.23e+06 | B1 |
| 0.0311 | 0.000138 | 4.42e+06 | B2 |
| 0.0312 | 0.000136 | 4.37e+06 | B3 |
| 0.023 | 0.000106 | 4.62e+06 | B4 |
| 0.0276 | 0.000125 | 4.54e+06 | B5 |
| 0.0282 | 0.000139 | 4.91e+06 | B6 |
| 0.0231 | 0.000109 | 4.72e+06 | B7 |
| 0.0249 | 0.000111 | 4.47e+06 | B8 |
| 0.0236 | 0.000108 | 4.59e+06 | B9 |
| 0.032 | 0.000142 | 4.43e+06 | B10 |
| 0.152 | 0.000101 | 667000 | B11 |
| 0.142 | 0.000114 | 801000 | B12 |
| 0.102 | 9.46e-05 | 923000 | B13 |
| 0.104 | 0.000124 | 1.19e+06 | B14 |
| 0.13 | 0.000116 | 899000 | B15 |
| 0.172 | 0.000109 | 635000 | B16 |
| 0.0807 | 0.000103 | 1.27e+06 | B17 |
| 0.0935 | 0.00012 | 1.28e+06 | B18 |
| 0.154 | 0.000135 | 876000 | B19 |

The binders below were run against T1, recombinant human GM-CSF protein (assay: cell-based or functional assay).

| IC50 for TF-1 proliferation [µg/mL] | Binder |
| --- | --- |
| 0.00855 | B1 |
| 0.0239 | B2 |
| 0.111 | B3 |
| 0.017 | B4 |
| 0.0143 | B5 |
| 0.0459 | B6 |
| 0.0413 | B7 |
| 0.0221 | B8 |
| 0.0216 | B9 |
| 0.0865 | B10 |
| 0.0274 | B11 |
| 0.00877 | B12 |
| 0.00395 | B13 |
| 0.0156 | B14 |
| 0.00908 | B15 |
| 0.0122 | B16 |
| 0.0033 | B17 |
| 0.00495 | B18 |
| 0.00787 | B19 |

The binders below were run against T2, recombinant rhesus GM-CSF protein (rhesus, UniProt Q9GL44 18-144) (assay: ELISA, rhesus GM-CSF coated at 1 ug/ml).
T2 construct: Bought recombinant protein (Genscript)
Procedure: Recombinant rhesus GM-CSF protein (Genscript) was coated at 1 ug/ml in PBS onto microtiter plates for 2 h at room temperature (RT). After coating of antigen, the wells were blocked with PBS/0.05% Tween (PBST) with 1% BSA for 1 h at RT. After washing of the wells with PBST, different concentrations of humanized anti-GM-CSF antibodies were added to the well and incubated for 1 at RT. For detection of the binding antibodies, the HRP-conjugated secondary antibodies against mouse Fc (Jackson Immuno Research) were added, followed by the addition of fluorogenic substrates (Roche). Between all incubation steps, the wells of the plate were washed with PBST three times. Fluorescence was measured in a TECAN Spectrafluor plate reader.

T2 sequence (Q9GL44 entry or part of it limits assumed): as the sequence (P04141 18-144 limits assumed) above, with S9G, E38K, I43V, T53S, R67Q, E104Q counted along it

| EC50 [µg/mL] | Binder |
| --- | --- |
| 0.0216 | B5 |
| 0.0189 | B8 |
| 0.00625 | B13 |
| 0.00775 | B17 |
| 0.00744 | B18 |
